Where two headings read alike, the source gives them in different places.
Experiments:
[1] = molecular target: T1, recombinant human HGF (R&D Systems, Catalog No. 294-HGN-025) (human, UniProt P14210 32-728); experiment: cell-based or functional assay
[2] = molecular target: T1, recombinant human HGF (R&D Systems, …); experiment: competition ELISA (DELFIA): antibody inhibits biotinylated c-Met binding to plate-coated HGF
Protocol: The plates then were blocked with 200 μL of 5% non-fat dry milk in PBS for 1 hour at room temperature. […] 100 μL of sample per well was transferred to the assay plate and incubated for 2 hours at room temperature. The resulting plates were washed three times with PBS-0.1% Tween 20, and incubated for 1 hour at room temperature with Eu-labeled Streptavidin (Wallac, Catalog No. 1244-360) diluted 1:1000 in DELFIA assay buffer (Wallac, Catalog No. 4002-0010). The resulting plates were washed 3 times with DELFIA wash solution (Wallac, Catalog No. 4010-0010) and incubated with 100 μL/well DELFIA enhancement solution (Wallac #4001-0010) for 15 minutes at room temperature with agitation. The plates were read on Victor³V instrument (Perkin Elmer) using the Europium method. The IC₅₀ values were calculated using Prism.

[3] = molecular target: T1, recombinant human HGF (R&D Systems, …); experiment: SPR, captured antibody, HGF injected, 25 C
Protocol: Mouse anti-human immunoglobulins (Jackson Labs, Catalog No. 209-005) or rabbit anti-mouse immunoglobulins (BIAcore, Catalog No. BR-1005-14) were immobilized on carboxymethylated dextran CM4 sensor chips (BIAcore, Catalog No. BR-1006-68) by amine coupling (BIAcore, Catalog No. BR-1000-50) using a standard coupling protocol according to manufacturer's instructions. […] The analyses were performed at 25° C. and 37° C. using PBS (GIBCO, Catalog No. 14040-133) containing 0.05% surfactant P20 (BIAcore, Catalog No. BR-1000-54), and 2 mg/mL BSA (EMD, Catalog No. 2930) as running buffer.
The antibodies were captured in an individual flow cell at a flow rate of […]. Injection time was variable for each antibody to yield approximately 20 RU of antibody captured for each cycle. […] The dissociation phase was monitored for 15 or 90 minutes, depending on concentration. The surface of mouse anti-human immunoglobulins sensor chips was then regenerated with 10 mM Glycine-HCl, pH 2.2 (BIAcore, Catalog No. BR-1003-54) injected for 3 minutes at a flow rate of 60 μL/min before another cycle was initiated. The surface of rabbit anti-mouse immunoglobulins sensor chips was regenerated with 10 mM Glycine-HCl, pH 1.7 (BIAcore, Catalog No. BR-1003-54) injected for 3 minutes at a flow rate of 60 μL/min before another cycle was initiated.
Kinetic parameters were determined using the kinetic function of the BIAevaluation software with reference subtraction.

[4] = molecular target: T1, recombinant human HGF (R&D Systems, …); experiment: SPR, captured antibody, HGF injected, 25 C; remark: listed apart in the source
Protocol: Mouse anti-human immunoglobulins (Jackson Labs, Catalog No. 209-005) were immobilized on carboxymethylated dextran CM4 sensor chips (BIAcore, Catalog No. BR-1006-68) by amine coupling (BIAcore, Catalog No. BR-1000-50) using a standard coupling protocol according to manufacturer's instructions. The analyses were performed at 25° C. using PBS (GIBCO, Catalog No. 14040-133) containing 0.05% surfactant P20 (BIAcore, Catalog No. BR-1000-54), and 2 mg/mL BSA (EMD, Catalog No. 2930).
The antibodies were captured in an individual flow cell at a flow rate of 10 μL/min. Injection time was variable for each antibody to yield approximately 20 RU of antibody captured for each cycle. […] The dissociation phase was monitored for 15 or 90 minutes, depending on concentration. The surface then was regenerated with 10 mM Glycine-HCl, pH 2.2 (BIAcore, Catalog No. BR-1003-54) injected for 3 minutes at a flow rate of 60 μL/min before another cycle was initiated.
Kinetic parameters were determined using the kinetic function of the BIAevalutation™ software with reference subtraction.

[5] = molecular target: T1, recombinant human HGF (R&D Systems, …); experiment: competition ELISA (DELFIA): antibody inhibits c-Met binding to plate-coated HGF
Protocol: The plates then were blocked with 200 μL of 5% non-fat dry milk in PBS for 1 hour at room temperature. […] 100 μL of sample per well was transferred to the assay plate and incubated overnight at 4° C.
The resulting plates then were washed three times with PBS-0.1% Tween 20, and incubated for 1 hour at room temperature with Eu-labeled Streptavidin (Wallac, Catalog No. 1244-360) diluted 1:1000 in DELFIA assay buffer (Wallac, Catalog No. 4002-0010). The resulting plates were washed 3 times with DELFIA wash solution (Wallac, Catalog No. 4010-0010) and incubated with 100 μL/well DELFIA enhancement solution (Wallac #4001-0010) for 15 minutes at room temperature with agitation.
The plates were read on Victor³V instrument (Perkin Elmer) using the Europium method.

T1 sequence (P14210 32-728 limits assumed): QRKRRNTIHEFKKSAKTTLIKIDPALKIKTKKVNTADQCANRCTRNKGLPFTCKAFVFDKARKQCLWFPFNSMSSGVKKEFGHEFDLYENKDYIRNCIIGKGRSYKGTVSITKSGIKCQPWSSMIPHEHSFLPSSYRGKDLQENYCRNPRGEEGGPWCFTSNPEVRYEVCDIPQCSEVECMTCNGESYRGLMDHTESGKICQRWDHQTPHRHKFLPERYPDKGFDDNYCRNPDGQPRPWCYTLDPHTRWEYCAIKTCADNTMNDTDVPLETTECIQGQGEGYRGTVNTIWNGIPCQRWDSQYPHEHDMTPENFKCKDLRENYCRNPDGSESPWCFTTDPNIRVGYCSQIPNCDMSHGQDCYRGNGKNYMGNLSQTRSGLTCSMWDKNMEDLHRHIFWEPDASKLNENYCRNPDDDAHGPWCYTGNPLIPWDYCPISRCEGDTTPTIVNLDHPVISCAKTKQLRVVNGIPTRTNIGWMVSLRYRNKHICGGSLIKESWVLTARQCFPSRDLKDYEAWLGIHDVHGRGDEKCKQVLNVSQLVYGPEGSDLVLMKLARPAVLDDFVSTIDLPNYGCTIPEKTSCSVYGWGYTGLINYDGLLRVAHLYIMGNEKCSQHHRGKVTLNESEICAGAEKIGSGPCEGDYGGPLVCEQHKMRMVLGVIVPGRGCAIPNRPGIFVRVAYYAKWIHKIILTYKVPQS

B1: anti-hHGF monoclonal antibody 2B8 (antibody, mouse IgG1, kappa)
heavy: QVQLQQPGAELVKPGTSVKLSCKASGYTFTTYWMHWVNQRPGQGLEWIGEINPTNGHTNYNEKFKSKATLTVDKSSSTAYMQLSSLTSEDSAVYYCARNYVGSIFDYWGQGTTLTVSSAKTTPPSVYPLAPGSAAQTNSMVTLGCLVKGYFPEPVTVTWNSGSLSSGVHTFPAVLQSDLYTLSSSVTVPSSTWPSETVTCNVAHPASSTKVDKKIVPRDCGCKPCICTVPEVSSVFIFPPKPKDVLTITLTPKVTCVVVDISKDDPEVQFSWFVDDVEVHTAQTQPREEQFNSTFRSVSELPIMHQDWLNGKEFKCRVNSAAFPAPIEKTISKTKGRPKAPQVYTIPPPKEQMAKDKVSLTCMITDFFPEDITVEWQWNGQPAENYKNTQPIMDTDGSYFVYSKLNVQKSNWEAGNTFTCSVLHEGLHNHHTEKSLSHSPGK
light: NIVMTQSPKSMSMSVGERVTLSCKASENVVSYVSWYQQKPAQSPKLLIYGASNRNTGVPDRFTGSGSATDFTLTISSVRAEDLADYHCGQSYNYPYTFGGGTRLEIKRADAAPTVSIFPPSSEQLTSGGASVVCFLNNFYPKDINVKWKIDGSERQNGVLNSWTDQDSKDSTYSMSSTLTLTKDEYERHNSYTCEATHKTSTSPIVKSFNRNEC
notes: Murine IgG1 kappa from hybridoma; also called murine 2B8; mouse 2B8
Question: Which results are given for B1?
Answer: EC50, inhibition of HGF-stimulated c-Met phosphorylation in PC-3 cells, Average of Two Trials [1]: 0.91 nM; IC50 [2]: 9.2 nM; Kd [3]: 0.0135 nM; koff [3]: 2.1e-05 s⁻¹; kon [3]: 1.6e+06 M⁻¹ s⁻¹; Kd [4]: 0.0073 nM; koff [4]: 1e-05 s⁻¹; kon [4]: 1.4e+06 M⁻¹ s⁻¹; IC50 [5]: 5.57 nM

B2: HE2B8-4 (LRMR2B8HC + IgG1 constant region G1m(3) allotype allele 1, plus LRMR2B8LC + Kappa constant region Km(3) allotype allele 1) (antibody, V domains shown)
VH: QVQLVQPGAEVKKPGTSVKLSCKASGYTFTTYWMHWVRQAPGQGLEWIGEINPTNGHTNYNQKFQGRATLTVDKSTSTAYMELSSLRSEDTAVYYCARNYVGSIFDYWGQGTLLTVSS
VL: DIVMTQSPDSLAMSLGERVTLNCKASENVVSYVSWYQQKPGQSPKLLIYGASNRESGVPDRFSGSGSATDFTLTISSVQAEDVADYHCGQSYNYPYTFGQGTKLEIKR
notes: Human Engineered 2B8 variant, human IgG1 kappa, made in HEK293E cells
Question: What does the source list for B2?
Answer: EC50, inhibition of HGF-stimulated c-Met phosphorylation in PC-3 cells, Average of Two Trials [1]: 0.75 nM; IC50 [2]: 6.5 nM; Kd [3]: 0.0056 nM; koff [3]: 1.2e-05 s⁻¹; kon [3]: 2e+06 M⁻¹ s⁻¹; Kd [4]: 0.0065 nM; koff [4]: 1.1e-05 s⁻¹; kon [4]: 1.7e+06 M⁻¹ s⁻¹

Reference: patent US20140178935A1 (AVEO PHARMACEUTICALS, published 2014)
